Legend:
[1] = biological target: T1, Nectin-4 fragment V (amino acid residues 1-150 of human Nectin-4) (human, UniProt Q96NY8 32-150); experiment: Western blot of cell lysates (FIG. 13)
T1 construct: Expressed in transfected cells and tested as a reduced RIPA lysate on a Western blot; Any tag or membrane anchor of the construct is not described; also called V fragment/domain
T1 sequence: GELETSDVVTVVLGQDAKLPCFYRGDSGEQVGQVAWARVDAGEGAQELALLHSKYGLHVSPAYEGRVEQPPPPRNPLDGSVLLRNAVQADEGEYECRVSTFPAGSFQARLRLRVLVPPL
Method: The cells expressing various Nectin-4 fragments were cultured and lysed in RIPA buffer. […] A 1:10000 dilution of a-GAPDH antibody (Chicken pAb, Millipore) was used detect GAPDH as a loading control. Antibodies bound to the protein bands were then detected with either 1:5000 dilution of Goat-anti-Mouse antibody conjugated with IRDye 680 (Odyssey) or 1:5000 Donkey anti-a-Chicken conjugated with IRDye 800 (Odyssey) and visualized in Odyssey system.

[2] = biological target: T2, recombinant extracellular domain of human Nectin-4 protein (fragment aa 31-346) (human, UniProt Q96NY8 31-346); experiment: ELISA
T2 construct: Made in E. coli with a 6xHN tag from a pET vector; The primary screen used aa 31-346; The secondary screen also used a 293FT-made fragment, printed as aa 1-346 in one place and aa 1-348 in another, with a myc-his tag; also called 6xHN-tagged Nectin 4 (aa 31-346); Nectin-4 extracellular domain fragment (amino acid residues 31-346)
T2 sequence: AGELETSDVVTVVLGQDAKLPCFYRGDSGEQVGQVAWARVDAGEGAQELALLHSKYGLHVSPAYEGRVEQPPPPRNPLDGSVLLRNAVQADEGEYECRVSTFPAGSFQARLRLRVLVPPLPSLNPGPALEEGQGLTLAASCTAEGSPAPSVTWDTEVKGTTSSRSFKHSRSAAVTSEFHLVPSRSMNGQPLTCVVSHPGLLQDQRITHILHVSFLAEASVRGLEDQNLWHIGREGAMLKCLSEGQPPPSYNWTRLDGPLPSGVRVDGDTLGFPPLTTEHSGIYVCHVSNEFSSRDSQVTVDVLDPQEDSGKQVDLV

human Nectin-4 = biological target: T3, human Nectin-4 (human, UniProt Q96NY8 32-510); experiment: IHC score, FFPE xenograft AG-OV35, 2.5 µg/mL
T3 construct: As expressed in human tumour xenograft tissues, human cell lines (T47D, NCI H322M) and Rat1(E) cells engineered to overexpress Nectin-4; Tested as FFPE sections (IHC) or as reduced lysates (Western blot); also called PVRL4; poliovirus receptor-related protein 4
T3 sequence: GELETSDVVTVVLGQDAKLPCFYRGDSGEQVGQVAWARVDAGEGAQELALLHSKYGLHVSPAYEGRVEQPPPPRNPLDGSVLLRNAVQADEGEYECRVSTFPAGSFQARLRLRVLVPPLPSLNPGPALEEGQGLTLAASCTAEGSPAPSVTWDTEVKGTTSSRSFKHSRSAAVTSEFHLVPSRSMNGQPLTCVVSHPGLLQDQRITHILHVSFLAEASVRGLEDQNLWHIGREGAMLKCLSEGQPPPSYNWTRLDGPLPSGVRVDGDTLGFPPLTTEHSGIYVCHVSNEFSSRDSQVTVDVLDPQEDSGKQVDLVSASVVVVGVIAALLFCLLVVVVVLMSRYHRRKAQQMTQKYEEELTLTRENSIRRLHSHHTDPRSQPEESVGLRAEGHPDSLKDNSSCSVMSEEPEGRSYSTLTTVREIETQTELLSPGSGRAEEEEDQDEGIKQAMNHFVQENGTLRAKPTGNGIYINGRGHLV
Method: (§1) IHC staining was performed according to the following exemplary protocols. Briefly, an indirect IHC technique was used to detect Nectin-4 in the IHC assay. The samples were fixed in 10% buffered neutral formalin, processed and embedded into paraffin wax, and prepared as 4 μm tissue sections. After deparaffinization and re-hydration, sections were treated for antigen retrieval. The antigen epitopes in Nectin-4 were retrieved, for example, by application of heat to the tissue sections in an aqueous medium, commonly referred to as a Heat-Induced Epitope Retrieval (HIER) procedure. […] The tissue sections bound with primary antibodies were washed and detected with an enzyme-labeled, e.g. peroxidase-labeled, secondary antibody. […] The stained tissue sections were then scanned, imaged, and evaluated with light microscopy, for example, using an Aperio ScanScope CS (Aperio, Vista, Calif.).
(§2) To assess the level of Nectin-4 expression in the tissue sections by the level of antibody staining, stained tissue sections were assessed, evaluated, categorized, and recorded into different categories or scores according to the intensity of the IHC staining and cancer cell positivity ratio. […] Lack of specific staining was recorded as negative (“0” or interchangeably with as “−”).

[3] = biological target: T4, Nectin-1 over-expressed by engineered Rat1(E) cells (UniProt Q15223 31-517, limits assumed); experiment: IHC, FFPE Rat1(E) cells expressing Nectin-1
T4 construct: whole, on cells; also called Rat1(E)-Nectin-1; Rat1(E) Nectin1
T4 sequence (looked up): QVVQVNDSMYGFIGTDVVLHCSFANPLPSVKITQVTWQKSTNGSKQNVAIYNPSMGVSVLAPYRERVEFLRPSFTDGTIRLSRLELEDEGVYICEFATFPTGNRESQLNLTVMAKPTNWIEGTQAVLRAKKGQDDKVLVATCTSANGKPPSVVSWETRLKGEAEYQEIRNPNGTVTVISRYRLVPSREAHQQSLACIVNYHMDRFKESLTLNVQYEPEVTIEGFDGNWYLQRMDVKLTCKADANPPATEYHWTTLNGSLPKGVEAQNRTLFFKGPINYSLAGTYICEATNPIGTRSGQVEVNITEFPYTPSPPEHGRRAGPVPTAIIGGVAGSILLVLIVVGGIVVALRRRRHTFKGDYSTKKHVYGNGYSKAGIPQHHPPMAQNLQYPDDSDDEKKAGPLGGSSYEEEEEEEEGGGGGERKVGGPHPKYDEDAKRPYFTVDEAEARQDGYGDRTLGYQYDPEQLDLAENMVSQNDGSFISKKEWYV

[4] = biological target: T5, Nectin-2 over-expressed by engineered Rat1(E) cells (UniProt Q92692 32-538, limits assumed); experiment: IHC, FFPE Rat1(E) cells expressing Nectin-2
T5 construct: whole, on cells; also called Rat1(E)-Nectin-2; Rat1(E) Nectin2
T5 sequence (looked up): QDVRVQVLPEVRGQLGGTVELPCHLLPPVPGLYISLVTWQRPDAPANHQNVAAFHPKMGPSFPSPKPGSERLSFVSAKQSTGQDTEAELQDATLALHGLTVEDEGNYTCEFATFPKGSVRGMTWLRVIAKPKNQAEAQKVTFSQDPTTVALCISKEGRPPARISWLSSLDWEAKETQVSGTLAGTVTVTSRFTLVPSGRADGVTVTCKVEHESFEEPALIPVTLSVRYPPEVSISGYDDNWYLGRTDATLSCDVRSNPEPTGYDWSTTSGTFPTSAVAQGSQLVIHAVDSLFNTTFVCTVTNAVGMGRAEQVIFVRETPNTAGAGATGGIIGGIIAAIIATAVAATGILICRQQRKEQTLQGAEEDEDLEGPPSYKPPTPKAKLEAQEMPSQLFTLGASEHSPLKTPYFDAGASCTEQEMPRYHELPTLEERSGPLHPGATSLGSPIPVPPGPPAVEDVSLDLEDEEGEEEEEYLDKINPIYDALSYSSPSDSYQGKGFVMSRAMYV
Method: as §1, §2

binding result [1]: binds | binding result [2]: binds | binding result (human Nectin-4): binds | binding result [3]: no binding (tested: 2.5 µg/mL) | binding result [4]: no binding (tested: 2.5 µg/mL)
B1: M22-321b41.1 anti-Nectin-4 mouse monoclonal antibody (antibody, mouse IgG2a, kappa, V domains shown)
VH: QVQLQQSGAELARPGASVKLSCKASGYTFTTYWMQWVKQRPGQGLEWIGSIYPGDGDTRYTQKFKGKATLTADKSSSTAYIQLSTLASEDSAVYYCAREYYGLDYWGQGTTLTVSS
VL: DIVMTQAAFSNPVTLGTSASISCRSSKSLLHSNGITYLYWYLQKPGQSPQLLIYHMSNLASGVPDRFTSSGSGTDFTLRISRVEAEDVGVYYCAQNLELPFTFGGGTKLETKR
notes: Mouse IgG2a kappa from hybridoma M22-321b41.1 (ATCC PTA-124245), protein A purified; also called mAb M22-321b41.1; M22-321b1.1

— patent publication US20200231670A1 (AGENSYS, published 2020)
